We go through 4 molecules from patent US20230338565A1, “ANTIBODY DRUG CONJUGATE, PREPARATION METHOD THEREFOR AND USE THEREOF” (SICHUAN KELUN-BIOTECH BIOPHARMACEUTICAL CO., LTD., priority 2020, published 2023).

One series addresses T1, human Claudin 18.2 (Homo sapiens, UniProt P56856).
T1 construct: expressed in transfected cells; cells formaldehyde-fixed for the cell ELISA
As to the kind of experiment: Cell ELISA on L929-Claudin 18.2 cells. The following applies: binding to L929-Claudin 18.2 cells, Cellular ELISA. The protocol: Human Claudin18.2 belongs to the tetraspanin family and has a complex structure. Cell ELISA was thus carried out to maintain the structure of Claudin18.2. The stable cell lines L929-Claudin 18.2 constructed in 6.1 were used for detection. Specifically, L929-Claudin 18.2 adherent cells were detached by 2 mM EDTA treatment. The cells were resuspended and adjusted to 2×10^5/mL and 100 μL of the resuspension was plated into a 96-well plate and incubated overnight at 37° C. The next day, the media was removed, and the plate was washed with PBS once. 100 μL/well 4% formaldehyde was added to the plate. After 30 min of incubation at room temperature, formaldehyde was removed, followed by being washed twice with PBS. Blocking buffer (PBS containing 2% BSA) was then added to the plate at 100 μL/well, and incubated at 37° C. for 2 h. After removal of blocking buffer, 100 μL/well of serially diluted antibodies (starting from 1 μM, with 4-fold dilution, for a total of 11 concentrations) were added to the corresponding wells, which were incubated at 37° C. for 2 h afterwards. The plate was washed with 250 μL PBST for 5 times, and was allowed to stand for 2 min each time. […] The OD450 nm absorbance values were obtained on a plate reader (MD, SpectraMax M2) and the results were subjected to curve fitting by Graphpad Prism. […]
Background: ELISA stands for enzyme-linked immunosorbent assay.

In series [1] the target is T2, human Claudin 18.2 on cell membrane (Homo sapiens, UniProt P56856).
T2 construct: expressed in transfected cells
As to the kind of experiment: Affinity to HEK293T-Claudin 18.2 by flow cytometry. The following applies: binding to HEK293T-Claudin 18.2 cells. As to the method: (§1) The affinity of 2C6.9-hz21 to human Claudin 18.2 on cell membrane was detected using HEK293T-Claudin 18.2 cells. The specific procedures were as follows: HEK293T-Claudin 18.2 cells were detached and centrifuged, followed by being washed twice with PBS. And then the cells were resuspended in PBS containing 1% BSA and were plated into a 96-well tip bottom plate at 300000 cells per well in a volume of 50 μl for 20 wells in total. […] of 2C6.9-hz21 and IMAB362 antibody were separately then added with 11 concentrations starting from 1000 nM with three-fold dilution to each well. Human IgG was served as negative control. The reactions were mixed well and incubated for 1 h at 4° C. in the dark, followed by three times of washing with PBS, the FITC-labelled anti-human Fc secondary antibody (Biolegend, 409322) was added and incubated for 0.5 h at 4° C. in the dark. Detection was performed by flow cytometry (Beckman, Cytoflex) after being washed for three times with PBS.

In series [2] the test system is HEK293T-Claudin 18.2 cells. As to the kind of experiment: ADCC, NK cell mediated killing assay. The class given is cell-based, human. Particulars: NK92MI-CD16a effector cells, LDH detection. The protocol:
2C6.9 belongs to IgG1 subtype and has relative strong antibody-dependent cell-mediated cytotoxicity (ADCC). NK cell mediated killing assay was used to determine the ADCC activity of 2C6.9. The specific procedures were as follows: HEK293T-Claudin 18.2 cells were harvested and centrifuged, followed by adjustment of cell density. 1×10^4/well of cells were plated on a plate and incubated overnight. The medium was removed on the next day. NK92MI-CD16a cells (Huabo Biopharm) were centrifuged, resuspended in MEMA medium and adjusted to 1×10^6/mL, then 50 μL/well cells were added to the corresponding wells. 2C6.9-hz21 and IMAB362 antibodies were diluted with MEMA medium. For HEK293T-Claudin18.2 cells, 10 antibody concentrations were tested, starting from 40 μg/mL with 5-fold dilution. For NUGC-4 cells, 11 antibody concentrations were tested, starting from 2 mg/mL with 5-fold dilution. 50 μL/well of the diluted antibodies were added to the corresponding wells and the reactions were left to stand in incubator at 37° C., 5% CO2 and incubated for 5.5 h. Lysis buffer was then added to the positive control well and incubated for another 0.5 h. 50 μL/well of Lactate Dehydrogenase (LDH) detection agent (DOJINDO LABORATORISE, CK12) were added to the wells and the absorbance at 490 nm were taken every 10 min on a microplate reader (MD, SpectraMax M2). […]

Series [3] addresses T3, human Claudin18.2 (human, UniProt P56856-2 1-261).
T3 construct: whole, on cells; Overexpressed on HEK293T, L929, KATOIII, NCI-N87 and BaF/3 cells, and endogenous on NUGC-4 cells; In the cell ELISA the L929-Claudin 18.2 cells were fixed with 4% formaldehyde; also called CLDN18.2
As to the kind of experiment: flow cytometry on HEK293T-Claudin 18.2 cells, FITC anti-human Fc secondary antibody. As to the method: as §1, with “The” for “The affinity of 2C6.9-hz21 to human Claudin 18.2 on cell membrane was detected using HEK293T-Claudin 18.2 cells. The”
Background: A flow cytometer gives signals particle by particle.

Series [4] deals with T3, human Claudin18.2. As to the kind of experiment: cell-based or functional assay.
Series [5] has as its target T3, human Claudin18.2. As to the kind of experiment: cell-based or functional assay. This is another data set of the same source.
In series [6] the target is T3, human Claudin18.2. As to the kind of experiment: cell ELISA on formaldehyde-fixed L929-Claudin 18.2 cells, HRP anti-human IgG. The protocol:
(§2) Human Claudin18.2 belongs to the tetraspanin family and has a complex structure. Cell ELISA was thus carried out to maintain the structure of Claudin18.2. […] The cells were resuspended and adjusted to 2×10⁵/mL and 100 μL of the resuspension was plated into a 96-well plate and incubated overnight at 37° C. The next day, the media was removed, and the plate was washed with PBS once. 100 μL/well 4% formaldehyde was added to the plate. After 30 min of incubation at room temperature, formaldehyde was removed, followed by being washed twice with PBS. Blocking buffer (PBS containing 2% BSA) was then added to the plate at 100 μL/well, and incubated at 37° C. for 2 h. After removal of blocking buffer, 100 μL/well of serially diluted antibodies (starting from 1 μM, with 4-fold dilution, for a total of 11 concentrations) were added to the corresponding wells, which were incubated at 37° C. for 2 h afterwards. The plate was washed with 250 μL PBST for 5 times, and was allowed to stand for 2 min each time. 100 μL/well of horseradish peroxidase labeled anti-Human IgG secondary antibody (HRP-anti-Human IgG, Jackson ImmunoResearch, 109-035-003) diluted 1:10000 in PBS (containing 2% BSA) was added to the plate. […] The OD450 nm absorbance values were obtained on a plate reader (MD, SpectraMax M2) and the results were subjected to curve fitting by Graphpad Prism.

A further series concerns the target T4, human Claudin18.1 (human, UniProt P56856 1-261).
T4 construct: whole, on cells
As to the kind of experiment: flow cytometry on HEK293T-human Claudin 18.1 cells, FITC anti-human Fc secondary antibody. As to the method: The specificity of candidate antibodies was detected by FACS. […] After being washed twice with PBS, the cells were resuspended with PBS containing 1% BSA. 300000 cells for each cell line were added with the candidate antibodies at a final concentration of 1000 nM, mixed well, and incubated for 1 h at 4° C., protected from light. Then the cells were washed for three times with PBS and FITC-labeled anti-human Fc secondary antibody (BioLegend, 409322) was added, followed by 0.5 h of incubation at 4° C. in the dark. Detection was performed by flow cytometry (Beckman, Cytoflex) after being washed with PBS for three times.

For series [7], the target named is T3, human Claudin18.2. The experiment in a line: cell-based or functional assay. The source holds these as a separate data set.
The target in series [8] is T3, human Claudin18.2. As to the kind of experiment: cell ELISA on L929-Claudin 18.2 cells. As to the method: as §2

On to “IMAB362: control anti-Claudin 18.2 antibody, sequences from patent CN 101312989 B [reference compound]”, for which, in the series with human Claudin 18.2, the “Max signal value (OD450)” value was determined as 0.53. In addition, the “Max MFI” value in series [1] was determined as 156715.7. Also, the “Max. cytotoxicity (%)” value in series [2] amounted to 20%.

B1: IMAB362 (antibody, V domains shown)
VH: QVQLQQPGAELVRPGASVKLSCKASGYTFTSYWINWVKQRPGQGLEWIGNIYPSDSYTNYNQKFKDKATLTVDKSSSTAYMQLSSPTSEDSAVYYCTRSWRGNSFDYWGQGTTLTVSS
VL: DIVMTQSPSSLTVTAGEKVTMSCKSSQSLLNSGNQKNYLTWYQQKPGQPPKLLIYWASTRESGVPDRFTGSGSGTDFTLTISSVQAEDLAVYYCQNDYSYPFTFGSGTKLEIKR
A word on the EC50: it is the concentration giving half of the maximal effect. Higher therefore signals a less potent agent. B1: the results for the EC50 with human Claudin18.2 [3] and in the series with human Claudin18.2 [6] were 8.22 nM and 0.15 nM, respectively. For the same molecule, the “ADCC activity, EC50 value” in the series with human Claudin18.2 [4] came out at 0.0577 µg/mL. Besides, in the series with human Claudin18.2 [5], the “CDC activity, EC50 value” turned out to be 3.32 µg/mL.

B2: humanized antibody 2C6.9-hz21 (antibody, human IgG1, kappa, V domains shown)
VH: QVQLQESGPGLVKPSETLSLTCTVSGFSLTRYGVSWIRQPPGKGLEWIGVIWGEGNTNYNPSLKSRVTISKDSSKSQVSLKLSSVTAADTAVYYCARVNFGNALDYWGQGTLVTVSS
VL: DIVMTQSPDSLAVSLGERATINCKSSQSLLNSGNQKNYLTWYQQKPGQPPKLLIYWASTRDSGVPDRFSGSGSGTDFTLTISSLQAEDVAVYYCQNDFIFPLTFGGGTKVEIKR
notes: Humanized from murine 2C6.9M; Expressed in Expi293F cells and purified on protein A; also called 2C6.9 mAb; humanized monoclonal antibody 2C6.9
For the molecule B2, the EC50 in the series with human Claudin18.2 [3] stood at 5.77 nM; with human Claudin18.2 [6], 0.12 nM. Also, in the series with human Claudin18.1, the binding result is “no binding (tested: 1000 nM)”. The “ADCC activity, EC50 value” with human Claudin18.2 [4] is 0.0677 µg/mL. Moreover, in the series with human Claudin18.2 [5], the “CDC activity, EC50 value” was 1.36 µg/mL. In addition, the “4-hour internalization ratio on NUGC-4 cells (flow cytometry)” value with human Claudin18.2 [7] is 37.8%.

B3: humanized antibody 2C6.9-hz11 (antibody, human IgG1, kappa, V domains shown)
VH: QVQLQESGPGLVKPSETLSLTCTVSGFSLTRYGVSWIRQPPGKGLEWIGVIWGDGNTNYNPSLKSRVTISKDSSKSQVSLKLSSVTAADTAVYYCARVNFGNALDYWGQGTLVTVSS
VL: DIVMTQSPDSLAVSLGERATINCKSSQSLLNSGNQKNYLTWYQQKPGQPPKLLIYWASTRDSGVPDRFSGSGSGTDFTLTISSLQAEDVAVYYCQNDFIFPLTFGGGTKVEIKR
notes: Human IgG1 / kappa
Consider B3, for which, in the series with human Claudin18.2 [8], the binding result was “binds”.
